Measured values published in the supplement of paper PMC9170038.

System: MS2 coat protein
Test: apparent KD of MS2 coat protein; designed switch direction (-1 OFF switch, 1 ON switch): 1; higher = weaker reporter binding
Summary of the method: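 An oligonucleotide input, 200 uM small-molecule ligand, or no input was present during titration of SNAP-549-labelled MS2 coat protein, which was doubled from 0.7 or 1.5 nM to 3 µM. Designed RNA switches had been transcribed on Illumina chips by stalled E. coli RNA polymerase. Apparent KD per design is the median over clusters of curves fitted to normalised cluster fluorescence.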

[1] = Eterna round: R95, input ligand: FMN 200 uM
[2] = Eterna round: R95, input ligand: microRNA oligo, concentration not stated
[3] = Eterna round: R95, input ligand: none
[4] = input ligand: microRNA oligo, concentration not stated

Sequence | apparent KD of MS2 coat protein [1] [nM] | apparent KD of MS2 coat protein [2] [nM] | apparent KD of MS2 coat protein [3] [nM] | apparent KD of MS2 coat protein (input ligand: FMN 200 uM) [nM] | apparent KD of MS2 coat protein [4] [nM] | apparent KD of MS2 coat protein (input ligand: none) [nM]
AGUUGUGGAAAACUAUAGCAAAAGCAUGUACAUGAGGAUCACCCAUGUCAUGUACAAGCUUUUUGCUCGUCUUAUGG [ak 3 mod of one Eli's designs.] (puzzle: Sensor for hsa-mir-208a) | 25 | 13.9 | 50.3 |  |  | 
AUAAAACAUGAGGAUCACCCAUGUAAUCGCCAGACAGGAUAUAUAGUGGCAUUUGCAGGGAUAGAAGGGUCGUGGC [Lerainxege] (puzzle: Same State 1) | 15.6 | 35.1 | 37 |  |  | 
AUAAAACAUGAGGAUCACCCAUGUCAAAAGACAUGAGGAUAUGUGCAAAUAAAAUAAGAAACAGAAGGCAUGAAAA [salish99_ss1_r3_103] (puzzle: Same State 1) | 98 | 105 | 222 |  |  | 
AUAAAACAUGAGGAUCACCCAUGUCAACAAAGUCGAGGAUAUGGGCAAAUAAAAUAAGAACCAGAAGGCUAAUAAU [salish99_ss1_r3_052] (puzzle: Same State 1) | 246 | 378 | 375 |  |  | 
AUAAAACAUGAGGAUCACCCAUGUCAACAAAGUUGAGGAUAUGGGCAAAUAAAAUAAGAACCAGAAGGCGAAUAAU [salish99_ss1_r3_033] (puzzle: Same State 1) | 429 | 193 | 546 |  |  | 
AUAACACCGGCAGGAUAUGGGAAAGGAAGUGUACCAGAAGGGCCGGAACGGCGAUGGACAUGAGGAUCACCCAUGUCUUAGCCU [PowerStrip SSNG 1.24] (Eterna round: R96, puzzle: Same State NG 1) |  |  |  | 13.7 | 11.6 | 17.3
AUAAGGCAAGCUUUUUUCUCGUAGUGUAAACAUGAGGAUCACCCAUGUGCCCGCUCUGGAUCUUUGGAUCGCAGAAA [Lavegeaus] (puzzle: Sensor for hsa-mir-208a) | 26.6 | 18.2 | 25.9 |  |  | 
AUAAGUCCGAUGCUCGUCUCUCCGUACAAACAUGAGGAUCACCCAUGUGAUCGGGAAGUAGCCCGAUCAGUAUGGCC [Erardius] (puzzle: Sensor for hsa-mir-208a) | 45.5 | 22.6 | 48.3 |  |  | 
AUAAGUUCGAUGCUCGUCUCUCCGUACAAACAUGAGGAUCACCCAUGUGAUCGAGAAGUAGCCCGAUCAGUAUGGCC [Soainge] (puzzle: Sensor for hsa-mir-208a) | 30.2 | 27 | 35.3 |  |  | 
AUAAGUUCGAUGCUCGUCUCUCCGUACAAACAUGAGGAUCACCCAUGUGAUCGGGAAGUAGCCCAAUCAGUAUGGCC [Oranlaen] (puzzle: Sensor for hsa-mir-208a) | 26.6 | 30 | 31.3 |  |  | 
AUAAGUUCGAUGCUCGUCUCUCCGUACUAACAUGAGGAUCACCCAUGUGGUCGGGAAGUAGCCCGACCAGUAUGGCC [Vearebe] (puzzle: Sensor for hsa-mir-208a) | 65.4 | 53.3 | 82.1 |  |  | 
AUAAGUUUGAUGCUCGUCUCUCCGUACAAACAUGAGGAUCACCCAUGUGGUCGGGAAGUAGCCCGGCCAGUAUGGCA [Arbitius] (puzzle: Sensor for hsa-mir-208a) | 43.3 | 17.9 | 47.3 |  |  | 
AUAAGUUUGAUGCUCGUCUCUCCGUACAAACAUGAGGAUCACCCAUGUGGUCGGGUAGUAGCCCGGCCAGUAUGGCC [Ribiesreri] (puzzle: Sensor for hsa-mir-208a) | 40.3 | 20.3 | 46 |  |  | 
AUAAGUUUGAUGCUCGUCUCUCCGUACUAACAUGAGGAUCACCCAUGUGGUCGGGAAGUAGCCCGGCCAGUAUGGCC [Lequteti] (puzzle: Sensor for hsa-mir-208a) | 19.5 | 19.4 | 19.3 |  |  | 
AUAAGUUUGAUGCUCGUCUCUUCGUACAGACAUGAGGAUCACCCAUGUAGUCGGGAAGUAGCCCGGCCAGUAUGACC [Usraisqu] (Eterna round: R96, puzzle: Sensor for hsa-mir-208a) |  |  |  | 285 | 38.2 | 248
AUAAGUUUGAUGCUCGUCUCUUCGUACAGACAUGAGGAUCACCCAUGUAGUCGGGAAGUAGCCCGGCCAGUAUGACC [Usraisqu] (puzzle: Sensor for hsa-mir-208a) | 197 | 40.5 | 468 |  |  | 
AUAAUACAUGAGGAUCACCCAUGUAAUUUAACUUGUAAGAUCAAGGAUAUCAGCUCGUUUAGAGCUGAGAAGGUGAUCACAUGU [SSNG3/20-A3] (Eterna round: R96, puzzle: Same State NG 3) |  |  |  |  | 60.2 | 

Sequence | apparent KD of MS2 coat protein [1] [nM] | apparent KD of MS2 coat protein [2] [nM] | apparent KD of MS2 coat protein [3] [nM] | apparent KD of MS2 coat protein (input ligand: FMN 200 uM) [nM] | apparent KD of MS2 coat protein [4] [nM] | apparent KD of MS2 coat protein (input ligand: none) [nM]
AUACAUGAGGAUCACCCAUGUAAUUAAUUAACUAGUAAGAUCUAGGAUAUCAGCUCGAAUAGAGCUGAGAAGGAGAUCACAUGU [SSNG3/21-A1] (Eterna round: R96, puzzle: Same State NG 3) |  |  |  |  | 31.2 | 
AUACUCAUGUAAGGAUAUGCAGCCGUUUCGGCUGCAGAAGGUACUAUAAUACAUGAGGAUCACCCAUGUCUCUAUUAUUUAGUU [JL SSNG1 1.46] (Eterna round: R96, puzzle: Same State NG 1) |  |  |  | 72.1 | 46.6 | 55.1
AUAGUGUACGCAGGAUAUCGAUGAGGAACAUGAGGAUCACCCAUGUUGUGAGGAUCACCCAUGUAUGAGAAGGGCGACCCAUGU [Same State NG2 S1] (Eterna round: R96, puzzle: Same State NG 2) |  |  |  | 148 | 46 | 57.7
AUAUAACAUGAGGAUCACCCAUGUCUCUAAAGUUGAGGAUAUGGGCAGGUUAUAUCCGAACCAGAAGGCGAAUUAU [SS1 Teenbexe 7] (puzzle: Same State 1) | 74.5 | 46.3 | 102 |  |  | 
AUAUGAGGAGCAGGAUAUGCGAAGAAGAAAGAAGUAGAAGGGCUCAUGGGACGACAUGAGGAUCACCCAUGUACUACCCGAUGA [AK SSNG1-V2-8] (Eterna round: R96, puzzle: Same State NG 1) |  |  |  | 49.8 | 66.7 | 55.9
AUAUUACAUGAGGAUCACCCAUGUCUCUAAAGUCGAGGAUAUGGGCAGGUUAUAUCCGAACCAGAAGGCGAAUUAU [SS1 Teenbexe 9] (puzzle: Same State 1) | 66.9 | 317 | 633 |  |  | 
AUCCUACAUGAGGAUCACCCAUGUGACGCCUCAAUAGGAUAUGCGUGUGCCUUGGCGCAUGCAGAAGGAUUGGAGC [JL Aveso mod 4] (puzzle: Same State 1) | 84.6 | 318 | 279 |  |  | 
AUCCUACAUGAGGAUCACCCAUGUGACGCCUCGAUAGGAUAUGCGUGUGCCUUGGCGCAUGCAGAAGGAUUGUAGC [JL Aveso mod 6] (puzzle: Same State 1) |  | 30.5 |  |  |  | 
AUCCUACAUGAGGAUCACCCAUGUGAGGCCUCAAUAGGAUAUGCGUGUGCCUUGGCGCAUGCAGAAGGAUUGAAGC [JL Aveso mod 2] (puzzle: Same State 1) |  | 159 |  |  |  | 
AUCUCUGUGCCGCAGGAUAUACCAACGGCUACAUGAGGAUCACCCAUGUCAUACCGUCGAAAGUGGUAGAAGGGUGUGCACGAGC [Reteonar] (puzzle: Same State 2) | 17.7 | 90.6 | 113 |  |  | 
AUGAAGAACUAAGGAUAUUGAAUACAUAUGUUUAACAUGAGGAUCACCCAUGUGGGUUGCGGUAUCGAGAAGGUAGAAUAAUAG [Mat - same State NG 2 - JL mod - D92] (Eterna round: R96, puzzle: Same State NG 2) |  |  |  | 95.7 | 70.3 | 123
AUGCAGCCACCACAGGAUAUACGUGGAUCGACAUGAGGAUCACCCAUGUAUAUCCUAAUAAUUGCGUAGAAGGGUGGUCGGCUGG [Anatxeage] (puzzle: Same State 2) |  | 362 |  |  |  | 
AUGCCAAAUCAAGGAUAUGGAGCCUUAUUGGCUCCAGAAGGUGGGACAUGAGGAUCACCCAUGUGGCAGUGGUCUAAUGACCAC [Fiskers NG1ss - 31] (Eterna round: R96, puzzle: Same State NG 1) |  |  |  | 59.7 | 146 | 200
AUGCCAAAUCAAGGAUAUGGAUCCUUAUUGGAUCCAGAAGGUGGGACAUGAGGAUCACCCAUGUGGCAGUGGUCUAAUGACCAC [Fiskers NG1ss - 30] (Eterna round: R96, puzzle: Same State NG 1) |  |  |  | 61 | 185 | 281
AUUAAACAUGAGGAUCACCCAUGUAUUAUUAUGGGAGGAUAUGCGAAUUUAAUUAAUUAAGCAGAAGGCCUAAUUA [Mat - Same State 1 - D102] (puzzle: Same State 1) | 18.7 | 98.3 | 141 |  |  | 
AUUAAACAUGAGGAUCACCCAUGUCAACAAAGUCGAGGAUAUGGGCAAAUAAAAUAAGAACCAGAAGGCGAAUAAU [salish99_ss1_r3_048] (Eterna round: R96, puzzle: Same State 1) |  |  |  |  | 193 | 
AUUAAACAUGAGGAUCACCCAUGUCAACAAAGUCGAGGAUAUGGGCAAAUAAAAUAAGAACCAGAAGGCGAAUAAU [salish99_ss1_r3_048] (puzzle: Same State 1) | 31.6 | 357 | 555 |  |  | 
